This note sets out measurements from US20150110744A1 (INTER K, published 2015).

Test in all cases: cell-based or functional assay
The target of assay [1] is Akt2 (PKB beta) (human (printed as '(h)'), UniProt P31751 1-481, limits assumed).
The target of assay [2] is Akt3 (PKB gamma) (human (printed as '(h)'), UniProt Q9Y243 1-479, limits assumed).
In assay [3] the target is c-Src (h) (human (printed as '(h)'), UniProt P12931 1-536, limits assumed).

Sequence of Akt2 (PKB beta) (human (printed as '(h)'), UniProt P31751 1-481, limits assumed) (P31751 whole entry): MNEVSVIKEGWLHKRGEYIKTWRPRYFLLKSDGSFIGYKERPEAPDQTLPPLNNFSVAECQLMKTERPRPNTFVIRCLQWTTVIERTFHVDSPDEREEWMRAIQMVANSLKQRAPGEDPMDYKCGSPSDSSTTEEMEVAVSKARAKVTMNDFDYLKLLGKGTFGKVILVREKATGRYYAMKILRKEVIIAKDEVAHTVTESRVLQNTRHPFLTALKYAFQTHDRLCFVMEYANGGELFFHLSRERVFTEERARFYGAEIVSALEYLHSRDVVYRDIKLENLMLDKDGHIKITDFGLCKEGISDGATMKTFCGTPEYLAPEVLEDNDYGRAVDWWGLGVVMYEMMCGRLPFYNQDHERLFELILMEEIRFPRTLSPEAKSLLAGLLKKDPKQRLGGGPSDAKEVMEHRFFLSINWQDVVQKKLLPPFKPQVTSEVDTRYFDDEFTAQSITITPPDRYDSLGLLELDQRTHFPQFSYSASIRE
Sequence of Akt3 (PKB gamma) (human (printed as '(h)'), UniProt Q9Y243 1-479, limits assumed) (Q9Y243 whole entry): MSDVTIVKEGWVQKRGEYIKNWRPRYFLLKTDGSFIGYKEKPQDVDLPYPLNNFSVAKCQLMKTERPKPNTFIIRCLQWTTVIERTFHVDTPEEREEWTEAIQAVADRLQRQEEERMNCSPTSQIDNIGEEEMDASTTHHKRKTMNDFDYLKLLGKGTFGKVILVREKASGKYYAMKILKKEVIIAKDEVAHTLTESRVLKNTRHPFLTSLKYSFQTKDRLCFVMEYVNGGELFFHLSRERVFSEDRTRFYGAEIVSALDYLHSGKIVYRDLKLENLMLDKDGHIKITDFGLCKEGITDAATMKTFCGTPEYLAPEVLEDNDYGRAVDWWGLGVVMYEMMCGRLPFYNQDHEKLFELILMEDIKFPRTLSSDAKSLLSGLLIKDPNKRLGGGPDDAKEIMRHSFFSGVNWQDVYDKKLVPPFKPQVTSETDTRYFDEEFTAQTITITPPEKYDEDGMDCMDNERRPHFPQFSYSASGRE

B1: RAAKAARAAK peptide (peptide)
peptide: RAAKAARAAK
For B1, the “Inhibitory Activity (%), cell-free in vitro kinase assay, peptide 50 µM” value (“Inhibitory Activity (%), cell-free” for short) turned out to be 0% in assay [1], 2% in assay [2] and 3% in assay [3].

B2: RSKAKNPLYR peptide (β6 integrin derived) (peptide)
peptide: RSKAKNPLYR
On to B2, for which the “Inhibitory Activity (%), cell-free” value in assay [1] turned out to be 3%; in assay [2] it was 8%; in assay [3], 53%.

B3: RVKVKVVVVR peptide (peptide)
peptide: RVKVKVVVVR
On to B3, for which the “Inhibitory Activity (%), cell-free” value turned out to be 89% in assay [1], 93% in assay [2] and 43% in assay [3].

B4: RAKAKAAAAR peptide (peptide)
peptide: RAKAKAAAAR
As to B4, the “Inhibitory Activity (%), cell-free” value in assay [1] stood at 0%; in assay [2], 52%; in assay [3] it was 27%.
